Measured values as given in paper PMC2063917.

What was measured:
His6-TIP47(152-434) = His6-TIP47(152-434) (UniProt O60664); assay: pull-down
[1] = molecular target: NH2-terminal His6-tagged p40 (UniProt Q7Z6M1); assay: pull-down
Sequence of UniProt Q7Z6M1 (Q7Z6M1 whole entry): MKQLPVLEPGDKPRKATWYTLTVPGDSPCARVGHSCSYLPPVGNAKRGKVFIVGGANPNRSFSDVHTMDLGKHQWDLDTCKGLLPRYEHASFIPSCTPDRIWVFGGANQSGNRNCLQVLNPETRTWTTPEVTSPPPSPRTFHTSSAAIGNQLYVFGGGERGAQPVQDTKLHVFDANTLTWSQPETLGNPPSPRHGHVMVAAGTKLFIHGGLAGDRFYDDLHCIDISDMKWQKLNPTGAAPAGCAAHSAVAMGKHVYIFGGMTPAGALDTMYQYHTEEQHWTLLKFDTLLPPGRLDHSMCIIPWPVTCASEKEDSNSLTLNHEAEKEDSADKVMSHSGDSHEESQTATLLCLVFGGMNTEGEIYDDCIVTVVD

Sequence of UniProt O60664 (O60664 152-434): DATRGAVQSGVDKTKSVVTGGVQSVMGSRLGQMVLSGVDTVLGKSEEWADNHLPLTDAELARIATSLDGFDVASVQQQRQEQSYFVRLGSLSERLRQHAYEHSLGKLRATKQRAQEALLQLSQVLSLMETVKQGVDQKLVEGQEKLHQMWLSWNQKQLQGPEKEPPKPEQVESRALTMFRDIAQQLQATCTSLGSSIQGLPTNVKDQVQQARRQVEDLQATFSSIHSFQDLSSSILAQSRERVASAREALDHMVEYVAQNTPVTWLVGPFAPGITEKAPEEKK

- pmol Rab9 bound (taken as 100% binding) (His6-TIP47(152-434)): 1.5 pmol
- pmol Rab9 bound (taken as 100% binding) [1]: 3.9 pmol
Substance: Rab9-CLLL, untagged (from UniProt P24408 1-201) (natural protein)
